Test results reported in PMC6662825.

Biological target: Trx-NVL^167–216-(GS)3-eYFP (human) (UniProt O15381)
Assay: MST; 50 nM Trx-NVL^167–216-(GS)3-eYFP with a 1:1 dilution series of unlabeled MTR4 KOW; 50 mM Hepes/NaOH pH 7.5, 150 mM NaCl, 5% glycerol, 0.5 mM TCEP; MST power 20%, LED power 20%; triplicates

Sequence of Trx-NVL^167–216-(GS)3-eYFP (human) (O15381 167-216): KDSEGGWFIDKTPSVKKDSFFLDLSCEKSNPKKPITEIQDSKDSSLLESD

B1: MTR4-KOW (domain or fragment)
chain: HKPKYCLPFLQPGRLVKVKNEGDDFGWGVVVNFSKKSNVKPNSGELDPLYVVEVLLRCSKESLKNSATEAAKPAKPDEKGEMQVVPVLVHLLSAISSVRLYIPKDLRPVDNRQSVLKSIQEVQKRFPDGIPLLDPIDDMGIQD
B1 was tested. Which Kd did it give?
The Kd was 1000 nM.
